Reference: patent US20170233490A1 (Hoffmann-La Roche, published 2017)
Values joined by “and” are separate entries in the source; they are usually repeats but may differ in a detail not shown here. Identical values can stand only once.

Assays:
[1] = biological target: T1, human HER2 (full length, on cells) (human, UniProt P04626 23-1255); assay: IHC (Ventana Benchmark XT) on formalin-fixed, paraffin-embedded HEK293 cells transiently transfected with full length HER2
T1 construct: HEK293 cells transfected with full length HER2 (IHC); MCF-7 cells (co-immunoprecipitation)
Experimental: All selected clones were tested for reactivity and specificity in IHC. […] After an additional fixation in formalin overnight the Agarose blocks were embedded in paraffin. Untransfected HEK293 cells were used as negative controls and treated accordingly to the transfected cells. After paraffin embedding 3 μm thin sections were prepared using a microtome. The sections were mounted on glass microscopy slides and dried for 2 h. All further steps of the immunohistochemical staining procedure were carried out using a Ventana Benchmark XT. The slides were dewaxed and antigen retrieval was performed by applying heat for 1 hour. For antigen retrieval the Ventana buffer CC1 was used. The antibodies were used at a concentration of 1 μg/ml. For the detection of bound antibody the Ventana UltraView detection kit was used.

HER3 ECD-HRG complex [2] = biological target: T2, HER3 ECD-HRG complex (human, UniProt P21860 20-643); assay: SPR Biacore T100, antibody captured, 25 C
T2 construct: HER3 ECD preincubated with a 3- to 6-fold molar excess of Heregulin ('open' conformation); biotinylated Her3-ECD in the ribosome display; also called HER3-ECD/HRG1β
Experimental: (§1) A CM5 series sensor was mounted into the system and was normalized in HBS-ET buffer (10 mM HEPES pH 7.4, 150 mM NaCl, 3 mM EDTA, 0.005% w/v Tween 20) according to the manufacturer's instructions. The sample buffer was the system buffer supplemented with 1 mg/ml CMD (Carboxymethyldextran, Sigma #86524). The system operated at 25° C. 6500 RU RAM-Fcγ (relative units of Fcγ-fragment RamIgG, GE Healthcare) were immobilized according to the manufacturer's instructions using EDC/NHS chemistry on all four flow cells. The sensor was deactivated using 1M ethanolamine.
(§2) The binding activity of the respective antibody against the analytes was kinetically tested. Antibodies were captured at 35 nM concentration by a 1 min injection at 5 μl/min. The flow rate was set to 100 μl/min.
(§3) Analytes in solution were injected at different concentration steps of 0 nM, 1.1 nM, 3.7 nM, 11.1 nM, 33.1 nM and 90 nM for 3.5 min. The dissociation was monitored for 15 min. Where possible, kinetic signatures were evaluated according to a Langmuir fit.

[3] = biological target: T3, human HER2 Extracellular Domain (ECD) (human, UniProt P04626 23-652); assay: SPR Biacore T100, antibody captured, 25 C
T3 construct: human recombinant, 69.6 kDa; also called Her2 ECD; HER2_ECD
Experimental: as §1, §2, §3

[4] = biological target: T4, human Heregulin fragment (HRG) (human); assay: SPR Biacore T100, antibody captured, 25 C
T4 construct: 44 kDa homodimeric protein, expressed in FreeStyle 293-F cells; also called Heregulin beta; HRG1β
T4 chain: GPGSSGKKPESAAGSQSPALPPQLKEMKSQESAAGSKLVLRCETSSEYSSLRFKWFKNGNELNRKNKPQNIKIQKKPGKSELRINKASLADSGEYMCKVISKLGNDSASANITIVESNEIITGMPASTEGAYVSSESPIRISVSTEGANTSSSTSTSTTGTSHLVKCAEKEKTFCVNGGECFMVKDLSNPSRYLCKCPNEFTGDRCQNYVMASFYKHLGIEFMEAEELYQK
Experimental: as §1, §2, §3

[5] = biological target: T5, human HER3 Extracellular Domain (ECD) (human, UniProt P21860 20-643); assay: SPR Biacore T100, antibody captured, 25 C
T5 construct: human recombinant, 68 kDa; 'closed' conformation without ligand; also called Her3 ECD; Her-3 ECD
Experimental: as §1, §2, §3

HER4 ECD-HRG complex [6] = biological target: T6, HER4 ECD-HRG complex (human, UniProt Q15303 26-651); assay: SPR Biacore T100, antibody captured, 25 C
T6 construct: HER4 ECD preincubated with a 5-fold molar excess of Heregulin
T6 sequence 1: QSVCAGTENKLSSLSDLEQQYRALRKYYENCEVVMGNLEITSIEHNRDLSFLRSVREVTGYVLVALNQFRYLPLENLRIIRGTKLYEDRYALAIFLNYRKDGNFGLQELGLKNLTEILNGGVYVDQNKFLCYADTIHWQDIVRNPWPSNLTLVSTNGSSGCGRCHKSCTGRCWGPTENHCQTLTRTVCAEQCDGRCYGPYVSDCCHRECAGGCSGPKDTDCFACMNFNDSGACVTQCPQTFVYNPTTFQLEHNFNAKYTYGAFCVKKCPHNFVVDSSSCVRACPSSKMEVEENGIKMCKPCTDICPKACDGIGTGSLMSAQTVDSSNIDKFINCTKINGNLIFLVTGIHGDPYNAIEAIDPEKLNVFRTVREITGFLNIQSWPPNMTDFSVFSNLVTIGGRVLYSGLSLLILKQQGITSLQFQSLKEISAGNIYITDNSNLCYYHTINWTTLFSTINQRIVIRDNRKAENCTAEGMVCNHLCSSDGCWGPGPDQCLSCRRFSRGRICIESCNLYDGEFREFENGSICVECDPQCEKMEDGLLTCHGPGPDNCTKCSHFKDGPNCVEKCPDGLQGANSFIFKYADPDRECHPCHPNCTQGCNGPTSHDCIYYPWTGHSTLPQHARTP
T6 sequence 2: T4 chain
Experimental: as §1, §2, §3

[7] = biological target: T7, human HER4 Extracellular Domain (ECD) (human, UniProt Q15303 26-651); assay: SPR Biacore T100, antibody captured, 25 C
T7 construct: also called Her4 ECD; HER4-ECD
T7 sequence: T6 sequence 1
Experimental: as §1, §2, §3

HER3 ECD-HRG complex [8] = biological target: T2, HER3 ECD-HRG complex; assay: SPR Biacore T100; reference: HER3-ECD without Heregulin
Experimental: as §1

HER4 ECD-HRG complex [9] = biological target: T6, HER4 ECD-HRG complex; assay: SPR Biacore T100; reference: HER4-ECD without Heregulin
[10] = biological target: T7, human HER4 Extracellular Domain (ECD); assay: SPR Biacore T100, antibody captured, 25 C; SPR at 25 C, antibody captured, HER4-ECD without HRG
Experimental: as §1, §2, §3

B1: anti-HER3/HER4 antibody M-05-74 (antibody, V domains shown)
VH: QVQLQQSGAELAKPGASVKMSCKTSGYTLTDYWIHWVKQRPGQGLEWIGYINPYTGYTESNQKFKDKATLTADKSSNTAYIQLSSLTSEDSAVYYCARPYYYGDYWGQGTTLTVSS
VL: QIVLTQSPAIMSASPGERVTITCSASSSVSYMHWFQQKPGTSPKLLIYSTSNLASGVPARFSGSGSGTSYSLTISRMEAEDAATYYCQQRSSYPFTFGSGTKLEIK
notes: murine monoclonal IgG from hybridoma (supernatant or purified), bivalent; also called M-074; M-5-74
binding result [1]: no binding (tested: 1 µg/ml) | BL (Binding Late) (HER3 ECD-HRG complex [2]): 160 RU | Kd (HER3 ECD-HRG complex [2]): 4.2 nM and 4 nM | MR (Molar Ratio) (HER3 ECD-HRG complex [2]): 0.6 | koff (HER3 ECD-HRG complex [2]): 0.00027 s⁻¹ | kon (HER3 ECD-HRG complex [2]): 63000 M⁻¹ s⁻¹ | binding result [3]: no binding (tested: up to 90 nM) | binding result [4]: no binding (tested: up to 90 nM) | BL (Binding Late) [5]: 70 RU | Kd [5]: 2.2 nM and 2 nM | MR (Molar Ratio) [5]: 0.2 | koff [5]: 2.8e-05 s⁻¹ | kon [5]: 13000 M⁻¹ s⁻¹ | BL (Binding Late) (HER4 ECD-HRG complex [6]): 349 RU | Kd (HER4 ECD-HRG complex [6]): 5.2 nM and 5 nM | MR (Molar Ratio) (HER4 ECD-HRG complex [6]): 0.6 | koff (HER4 ECD-HRG complex [6]): 0.00083 s⁻¹ | kon (HER4 ECD-HRG complex [6]): 160000 M⁻¹ s⁻¹ | BL (Binding Late) [7]: 27 RU | Kd [7]: 150 nM | MR (Molar Ratio) [7]: 0.1 | ratio MR (+Heregulin)/MR (-Heregulin) (HER3 ECD-HRG complex [8]): 3 fold | ratio ka (Her3-ECD-HRG)/ka (Her3-ECD) (HER3 ECD-HRG complex [8]): 4.85 fold | ratio MR (+Heregulin)/MR (-Heregulin) (HER4 ECD-HRG complex [9]): 6 fold | ratio ka (Her4-ECD-HRG)/ka (Her4-ECD) (HER4 ECD-HRG complex [9]): 23.9 fold | Kd [10]: 150 nM | koff [10]: 0.001 s⁻¹ | kon [10]: 6700 M⁻¹ s⁻¹
